Data as given in the RNAGym collection of RNA variant scans (doi:10.1101/gr.219683.116).

B1: mRNA-splicing (parent)
chain: AGUUGCUGCUGGGAGCUCCAGCACAGUGAAAUGGACAGAAGGGCAGAGCAA

Variants of: B1
Test: exon inclusion enrichment index; higher = more inclusion; WT1 exon 5 minigene, HEK293

**Q.** For AGUUAGGGAUGGGAGCUCCAGCACAGUGAAACGGACAGAAGGGCAGAGCAA [G5A C6G U7G C9A U32C], which “exon inclusion enrichment index” value is on record?
**A.** 0.00508

**Q.** For AGUUCGCGCCGGGAGCUCCAGCACAGUAAAAUGGACAGAAGGGCAGAGCAA [G5C C6G U7C U10C G28A], which “exon inclusion enrichment index” value is on record?
**A.** 1.63

**Q.** Which “exon inclusion enrichment index” value does the source give for AGUUCACACAGGGAGCUCCAGCACAGUGAAAUGGACAGAAGGGCAGCGCAA [G5C C6A U7C G8A U10A A47C] here?
**A.** 0.232

**Q.** For AGUUCACACAGGGAGCUCCAGCACACAGAAAUGGACAGAAGGGCAGAGCAA [G5C C6A U7C G8A U10A G26C U27A], which “exon inclusion enrichment index” value is on record?
**A.** 0.076

**Q.** With AGUUGAAGAAGGCAGCUCCAGCACAGUGAAAUGGACAGAAGGGCAGAGCAA [C6A U7A C9A U10A G13C] as the variant, how does the “exon inclusion enrichment index” value read?
**A.** 1.04

**Q.** Which “exon inclusion enrichment index” value does the source give for AGUUCUUCUCGGGAGCUCCACUACAGUGAAAUGGACAGAAGGGCAGAGCAA [G5C C6U G8C C9U U10C G21C C22U] here?
**A.** 1.79

**Q.** For AGUUUCGUUUGGGAGCUCCAGCACAGUGAAAUGGACAGAAGGGCAGAGCAA [G5U U7G G8U C9U], which “exon inclusion enrichment index” value is on record?
**A.** 0.893

**Q.** Which “exon inclusion enrichment index” value does the source give for AGUUACCACCGGGAGCUCCAGCACAGCUAAAUGGACAGAAGGGCAGAGCAA [G5A U7C G8A U10C U27C G28U] here?
**A.** 1.74

**Q.** For AGUUCGGGAUGGGAGCUCCAGCACAGUGAAAUGGACAGAAGGGCAGAGCAA [G5C C6G U7G C9A], which “exon inclusion enrichment index” value is on record?
**A.** 1.02

**Q.** Which “exon inclusion enrichment index” value does the source give for AGUUAUAUAUGGGAGCUCCAGCACAGUGAAAUGGACAGAAGGGCAGUGCAA [G5A C6U U7A G8U C9A A47U] here?
**A.** 0.0348

**Q.** With AGUUAUAUAUGGGGGCUCCAGCACAGUGAAAUGGACAGAAGGGCAGAGCAA [G5A C6U U7A G8U C9A A14G] as the variant, how does the “exon inclusion enrichment index” value read?
**A.** 0.0395

**Q.** Which “exon inclusion enrichment index” value does the source give for AGUUGAAGAAGGGAAUUCCAGCACAGUGAAAUGGACAGAAGGGCAGAGCAA [C6A U7A C9A U10A G15A C16U] here?
**A.** 0.351

**Q.** Which “exon inclusion enrichment index” value does the source give for AGUUGCUGCUGGGAGCUCCAGCACAGUGAAAUGGAUUGAAGGGCAGAGCAA [C36U A37U] here?
**A.** 0.0501

**Q.** For AGUUCACACAGGGAGCUCCAGCACAGUGCAAUGGACAGAAGGGCAGAGCAA [G5C C6A U7C G8A U10A A29C], which “exon inclusion enrichment index” value is on record?
**A.** 0.0911

**Q.** Which “exon inclusion enrichment index” value does the source give for AGUUAUAUAUGGGAGCUCCAGCACAGUGAAAUGGACAGAAGGGCAGCACAA [G5A C6U U7A G8U C9A A47C G48A] here?
**A.** 0.0387

**Q.** For AGUUGACGACGGGAGCUCCAGCACAGUGAAAUGGACAGAAGGGCAUAGCAA [C6A U7C C9A U10C G46U], which “exon inclusion enrichment index” value is on record?
**A.** 2.22

**Q.** With AGUUACCACCGGGAGCUCCAGCACAGUGAAAUGGACAGAACAGCAGAGCAA [G5A U7C G8A U10C G41C G42A] as the variant, how does the “exon inclusion enrichment index” value read?
**A.** 2.13

**Q.** With AGUUGCUGCUGGGAGCUCCAGCACAGCGAAAUGGACAGAAGGGCAGAGCAA [U27C] as the variant, how does the “exon inclusion enrichment index” value read?
**A.** 0.36

**Q.** With AGUUGACGACGGGAGCUCCGCCACAGUGAAAUGGACAGAAGGGCAGAGCAA [C6A U7C C9A U10C A20G G21C] as the variant, how does the “exon inclusion enrichment index” value read?
**A.** 3.34

**Q.** Which “exon inclusion enrichment index” value does the source give for AGUUAUAUAUGGGAGCUCCAGCACAGUGAAAUGGACAGAAGGGACGAGCAA [G5A C6U U7A G8U C9A C44A A45C] here?
**A.** 0.248

**Q.** For AGUUAUAUAUAAGAGCUCCAGCACAGUGAAAUGGACAGAAGGGCAGAGCAA [G5A C6U U7A G8U C9A G11A G12A], which “exon inclusion enrichment index” value is on record?
**A.** 0.00659

**Q.** Which “exon inclusion enrichment index” value does the source give for AGUUGCUGCUGGGAGCUCCAGCAACGUGAAAUGGACAGAAGGGCAGAGCAA [C24A A25C] here?
**A.** 0.728

**Q.** Which “exon inclusion enrichment index” value does the source give for AGUUCGCGCCGGGAGCCUCAGCACAGUGAAAUGGACAGAAGGGCAGAGCAA [G5C C6G U7C U10C U17C C18U] here?
**A.** 3.54

**Q.** With AGUUACCACCGGGAGCUCCAGCAAUGUGAAAUGGACAGAAGGGCAGAGCAA [G5A U7C G8A U10C C24A A25U] as the variant, how does the “exon inclusion enrichment index” value read?
**A.** 2.06

**Q.** Which “exon inclusion enrichment index” value does the source give for AGUUAGGGAUGGGAGCUCCAGCACAGUGAAAUGGACAGAACGGCAGAGCAA [G5A C6G U7G C9A G41C] here?
**A.** 0.013

**Q.** For AGUUAUAUAUGGGAGUCCCAGCACAGUGAAAUGGACAGAAGGGCAGAGCAA [G5A C6U U7A G8U C9A C16U U17C], which “exon inclusion enrichment index” value is on record?
**A.** 0.0363

**Q.** Which “exon inclusion enrichment index” value does the source give for AUAUGAAGAAGGGAGCUCCAGCACAGUGAAAUGGACAGAAGGGCAGAGCAA [G2U U3A C6A U7A C9A U10A] here?
**A.** 1.45

**Q.** Which “exon inclusion enrichment index” value does the source give for AGUUGCUGCUGGGAGCUCCAGCACAGUGAAAUGGACAGAGCGGCAGAGCAA [A40G G41C] here?
**A.** 0.927

**Q.** For AGUUCACACAGGGAGCUCCAGCACAGUGAAAUGGACAGAAGGGCCUAGCAA [G5C C6A U7C G8A U10A A45C G46U], which “exon inclusion enrichment index” value is on record?
**A.** 0.0352

**Q.** Which “exon inclusion enrichment index” value does the source give for AGUUGACGACGGGAGCUCCAGCACAGUGAAAUGGACAGAAGUGCAGAGCAA [C6A U7C C9A U10C G42U] here?
**A.** 3.3

**Q.** For AGUUCGCGCCGGGAGCUCCAGCACAGUGAAAUGGACAGAAGGGCUUAGCAA [G5C C6G U7C U10C A45U G46U], which “exon inclusion enrichment index” value is on record?
**A.** 1.75

**Q.** With AGUUGCUGCUGGGAGCUCCAGCACAGUGAAAUGGACAGAAGGGCAGAUCAA [G48U] as the variant, how does the “exon inclusion enrichment index” value read?
**A.** 0.288

**Q.** Which “exon inclusion enrichment index” value does the source give for AGUUCACACAGGGGCCUCCAGCACAGUGAAAUGGACAGAAGGGCAGAGCAA [G5C C6A U7C G8A U10A A14G G15C] here?
**A.** 0.0391

**Q.** Which “exon inclusion enrichment index” value does the source give for AGUUGAAGAAGGGAGACCCAGCACAGUGAAAUGGACAGAAGGGCAGAGCAA [C6A U7A C9A U10A C16A U17C] here?
**A.** 0.47

**Q.** With AGUCGCUGCUGGGAGCUCCAGCACAGUGAAAUGGACAGAAGGGCAGAGCAA [U4C] as the variant, how does the “exon inclusion enrichment index” value read?
**A.** 0.365

**Q.** With AGUUUCUUUUGGGAGCUCCAGCACAGUGAAACAGACAGAAGGGCAGAGCAA [G5U G8U C9U U32C G33A] as the variant, how does the “exon inclusion enrichment index” value read?
**A.** 0.0483

**Q.** For AGUUGAAGAAGGGAGCUCCAUAACAGUGAAAUGGACAGAAGGGCAGAGCAA [C6A U7A C9A U10A G21U C22A], which “exon inclusion enrichment index” value is on record?
**A.** 0.136

**Q.** For AGUUGCUGCUGGGAGCUCCAGCACAGGAAAAUGGACAGAAGGGCAGAGCAA [U27G G28A], which “exon inclusion enrichment index” value is on record?
**A.** 0.354

**Q.** For AGUUCGCGCCGGGAGCUCCAGCACAGUGAAAUCCACAGAAGGGCAGAGCAA [G5C C6G U7C U10C G33C G34C], which “exon inclusion enrichment index” value is on record?
**A.** 2.29

**Q.** With AGUUAGGGAUGGGAGCUCCAGCACAGUGAAAUGGACAGAAGUGCAGAGCAA [G5A C6G U7G C9A G42U] as the variant, how does the “exon inclusion enrichment index” value read?
**A.** 0.00622

**Q.** With AGUUCUUCUUAGGAGCUCCAGCACAGUGAAAUGGACAGAAGGGCAGAGCAA [G5C C6U G8C C9U G11A] as the variant, how does the “exon inclusion enrichment index” value read?
**A.** 0.125

**Q.** With AGUUACCACCGCAAGCUCCAGCACAGUGAAAUGGACAGAAGGGCAGAGCAA [G5A U7C G8A U10C G12C G13A] as the variant, how does the “exon inclusion enrichment index” value read?
**A.** 0.95

**Q.** Which “exon inclusion enrichment index” value does the source give for AGUUAUAUAUGGGAGAGCCAGCACAGUGAAAUGGACAGAAGGGCAGAGCAA [G5A C6U U7A G8U C9A C16A U17G] here?
**A.** 0.0322

**Q.** Which “exon inclusion enrichment index” value does the source give for AGUUUCUUUUGGGAGCUCCAGCACAGUGAAAUGGACAGAAGGGCAGUCCAA [G5U G8U C9U A47U G48C] here?
**A.** 0.0643

**Q.** With AGUUACCACCGGGAGCUCCAGCGAAGUGAAAUGGACAGAAGGGCAGAGCAA [G5A U7C G8A U10C A23G C24A] as the variant, how does the “exon inclusion enrichment index” value read?
**A.** 3.5

**Q.** For AGUUGCUGCAUGGAGCUCCAGCACAGUGAAAUGGACAGAAGGGCAGAGCAA [U10A G11U], which “exon inclusion enrichment index” value is on record?
**A.** 2.73

**Q.** With AGUUACCACCGGGAGCUCCAGCACAGUGACAUGGACAGAAGGGCAGAGCAA [G5A U7C G8A U10C A30C] as the variant, how does the “exon inclusion enrichment index” value read?
**A.** 2.51

**Q.** With AGUUCGCGCCGGGAGCUCAAGCACAGUGAAAUGGACAGAAGGGCAGAGCAA [G5C C6G U7C U10C C19A] as the variant, how does the “exon inclusion enrichment index” value read?
**A.** 2.65

**Q.** For AGUUGACGACGGGAGCUCCAGCAUCGUGAAAUGGACAGAAGGGCAGAGCAA [C6A U7C C9A U10C C24U A25C], which “exon inclusion enrichment index” value is on record?
**A.** 4.21

**Q.** With AGUUCGCGCCGGGAGCUCCAGCACAGUGACCUGGACAGAAGGGCAGAGCAA [G5C C6G U7C U10C A30C A31C] as the variant, how does the “exon inclusion enrichment index” value read?
**A.** 3.86

**Q.** Which “exon inclusion enrichment index” value does the source give for AGUUUCUUUUGGGAGCUCCAGAGCAGUGAAAUGGACAGAAGGGCAGAGCAA [G5U G8U C9U C22A A23G] here?
**A.** 0.141
